Results: publication PMC9881146

Experiments:
[1] = target: Cdc13 OB1 domain (Strep-TEV-Strep-OB1, residues 1-176) (C. glabrata); assay: AUC
[2] = target: Cdc13 OB1 domain without its C-terminal tail (OB1 ΔC-ter) (C. glabrata); assay: AUC
[3] = target: Cdc13 OB2 domain (Strep-TEV-Strep-OB2, residues 260-396) (C. glabrata); assay: SEC
[4] = target: Cdc13_(OB23) (H10-TEV-Cdc13_(OB23)) (C. glabrata); assay: AUC
[5] = target: Cdc13_(OB23) (H10-TEV-Cdc13_(OB23)) (C. glabrata); assay: mass photometry
[6] = target: Cdc13_(OB23) (H10-TEV-Cdc13_(OB23)) (C. glabrata); assay: SEC
[7] = target: Cdc13_(OB24) (H10-TEV-Cdc13_(OB24)) (C. glabrata); assay: AUC
[8] = target: Cdc13_(OB24) (H10-TEV-Cdc13_(OB24)) (C. glabrata); assay: mass photometry
[9] = target: Cdc13_(OB24) (H10-TEV-Cdc13_(OB24)) (C. glabrata); assay: SEC
[10] = target: Cdc13_(OB234), purified, large tag removed (C. glabrata); assay: AUC
[11] = target: OB1 ΔC-ter A40W (C. glabrata); assay: AUC
[12] = target: OB1 ΔC-ter A40W D94A (C. glabrata); assay: AUC
[13] = target: OB1 ΔC-ter Q39A (C. glabrata); assay: AUC
[14] = target: OB1 ΔC-ter Q39A A40W (C. glabrata); assay: AUC
Cdc13OB23 = target: T1, Cdc13OB23 (Candida glabrata, UniProt Q6FT40 260-593); assay: fluorescence polarization
T1 sequence: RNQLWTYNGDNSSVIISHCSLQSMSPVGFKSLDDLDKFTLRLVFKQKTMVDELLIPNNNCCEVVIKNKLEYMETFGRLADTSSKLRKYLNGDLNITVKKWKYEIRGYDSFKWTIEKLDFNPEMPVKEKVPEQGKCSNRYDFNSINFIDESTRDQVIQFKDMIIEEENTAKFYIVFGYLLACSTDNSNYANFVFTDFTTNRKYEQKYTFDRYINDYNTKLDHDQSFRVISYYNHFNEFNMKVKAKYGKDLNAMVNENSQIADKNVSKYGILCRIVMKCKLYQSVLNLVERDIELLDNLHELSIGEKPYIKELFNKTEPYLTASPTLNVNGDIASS

Cdc13OB34 = target: T2, Cdc13OB34 (Candida glabrata, UniProt Q6FT40 401-753); assay: fluorescence polarization
T2 sequence: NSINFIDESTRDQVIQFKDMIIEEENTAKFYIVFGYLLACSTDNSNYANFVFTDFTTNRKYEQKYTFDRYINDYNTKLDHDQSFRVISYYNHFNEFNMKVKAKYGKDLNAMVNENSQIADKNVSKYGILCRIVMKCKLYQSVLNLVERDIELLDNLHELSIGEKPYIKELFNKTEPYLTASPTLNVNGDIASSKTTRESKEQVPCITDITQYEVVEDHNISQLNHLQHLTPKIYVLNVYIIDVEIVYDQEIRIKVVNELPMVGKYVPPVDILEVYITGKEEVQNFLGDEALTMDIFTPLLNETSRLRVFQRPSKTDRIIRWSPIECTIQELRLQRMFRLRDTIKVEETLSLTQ

Cdc13OB234 = target: T3, Cdc13OB234 (Candida glabrata, UniProt Q6FT40 260-753); assay: fluorescence polarization
T3 sequence: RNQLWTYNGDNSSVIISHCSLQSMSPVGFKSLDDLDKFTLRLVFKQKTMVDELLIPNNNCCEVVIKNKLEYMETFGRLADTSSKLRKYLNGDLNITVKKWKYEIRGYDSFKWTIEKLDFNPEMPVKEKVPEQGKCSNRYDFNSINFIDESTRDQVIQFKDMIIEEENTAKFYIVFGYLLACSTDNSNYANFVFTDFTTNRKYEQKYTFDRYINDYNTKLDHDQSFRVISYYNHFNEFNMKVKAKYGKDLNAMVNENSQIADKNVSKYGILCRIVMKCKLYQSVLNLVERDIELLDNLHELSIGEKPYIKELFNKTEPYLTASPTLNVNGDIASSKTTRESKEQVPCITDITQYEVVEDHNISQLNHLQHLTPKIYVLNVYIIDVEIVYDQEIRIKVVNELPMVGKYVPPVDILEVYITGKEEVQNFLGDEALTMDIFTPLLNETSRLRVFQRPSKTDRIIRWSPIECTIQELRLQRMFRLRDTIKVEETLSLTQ

OB3 = target: T4, OB3 (Candida glabrata, UniProt Q6FT40 401-593); assay: EMSA
T4 sequence: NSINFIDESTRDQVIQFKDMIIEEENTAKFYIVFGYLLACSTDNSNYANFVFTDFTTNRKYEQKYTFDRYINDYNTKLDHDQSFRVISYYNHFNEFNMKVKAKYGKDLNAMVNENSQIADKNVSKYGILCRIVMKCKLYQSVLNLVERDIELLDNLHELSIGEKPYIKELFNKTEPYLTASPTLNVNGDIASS

“Cdc13 OB1 domain (Strep-TEV-Strep-OB1, residues 1-176) (domain or fragment)” was tested, and the relative abundance of species 1 (monomer) [1] was 72%, the relative abundance of species 2 [1] was 4% and the relative abundance of species 3 [1] was 3%. For the same molecule, the relative abundance of species 4 [1] was 4.5% and the relative abundance of species 5 [1] was 2%.

“Cdc13 OB1 domain without its C-terminal tail (OB1 ΔC-ter) (domain or fragment)” gave a relative abundance of species 1 [2] of 95%, a relative abundance of species 2 [2] of 4% and a relative abundance of species 3 [2] of 1%.

With “Cdc13 OB2 domain (Strep-TEV-Strep-OB2, residues 260-396) (domain or fragment)” the stoichiometry N [3] was 2.

With “Cdc13_(OB23) (H10-TEV-Cdc13_(OB23)) (domain or fragment)” the stoichiometry N [4] was 2, the stoichiometry N [5] was 2 and the stoichiometry N [6] was 2.

For “Cdc13_(OB24) (H10-TEV-Cdc13_(OB24)) (domain or fragment)”, the stoichiometry N [7] was 2, the stoichiometry N [8] was 2 and the stoichiometry N [9] was 2.

“Cdc13_(OB234), purified, large tag removed (domain or fragment)” showed a stoichiometry N [10] of 2.

In the case of OB1 ΔC-ter A40W (domain or fragment), the relative abundance of species 1 [11] is reported as 97.9% and the relative abundance of species 2 [11] is reported as 2.1%.

“OB1 ΔC-ter A40W D94A (domain or fragment)” showed a relative abundance of species 1 [12] of 97% and a relative abundance of species 2 [12] of 3%.

Molecule OB1 ΔC-ter Q39A (domain or fragment) has a relative abundance of species 1 [13] of 95.8%, a relative abundance of species 2 [13] of 3.1% and a relative abundance of species 3 [13] of 1.1%.

“OB1 ΔC-ter Q39A A40W (domain or fragment)” was tested, and the relative abundance of species 1 [14] was 97.8% and the relative abundance of species 2 [14] was 2.2%.

TGTGGGGTCTGGGTGCTGTGGGGTCTGGGTGCTGTGGGGTCTGGGTGC (ssDNA) [6FAM-CgTelo] showed a Kd (Cdc13OB23) of 28.5 ± 3.8 nM, a Kd (Cdc13OB34) of 299 ± 41 nM and a Kd (Cdc13OB234) of 13.5 ± 1.7 nM.

TTTTTTTTTTTTTTTTTTTTTTTTTTTTTTTTTTTTTTTTTTTTTTTT (ssDNA) [polyT]: no binding (OB3).
